The subject of one assay is Colo-205 cells. As to the kind of experiment: Cell Titre-Glo (CTG) in vitro activity assay, Colo-205. It counts as cell-based, human. As to conditions: 72 h, 10% FBS (FIG. 16). From the text:
(§1) The ADC non-binding control was an anti-CD19 ADC (DAR 2.0) composed of the same linker-drug combination as ADC-3.

A further assay has as its system BxPC3 xenograft. In words: In vivo efficacy study in BxPC3 xenograft model. More on the design: species or system mice. The procedure: Conjugate doses of 0.4 mg/kg (5.3 nmol of conjugated drug/kg), 1 mg/kg (13 nmol of conjugated drug/kg) for ADC-2 and ADC-3, and 0.2 mg/kg (5.3 nmol of conjugated drug/kg) and 0.5 mg/kg (13 nmol of conjugated drug/kg) for Cantuzumab ravtansine were used.

Assay [1] relates to NCI-N87 gastric cancer xenograft. In words: In vivo efficacy study in NCI-N87 xenograft model. More on the design: species or system mice. The following applies: single intravenous dose 2 mg/kg (53 nmol drug/kg), day 33.
Source text: as §1

The test system of a further assay is Colo-205 xenograft. As to conditions: CB17 SCID mice, single intravenous dose 2 mg/kg (53 nmol drug/kg), calculation based on day 16. The procedure: Mice were subcutaneously inoculated into the right flank with 5×10^6 Colo-205 cells in 0.2 mL of DPBS mixed 1:1 with BD Matrigel. […] Tumour size was measured thrice weekly in two dimensions using a calliper, and the volume was expressed in mm^3 using the formula: V=0.5 a×b^2 where a and b are the long and short diameters of the tumour, respectively (see FIGS. 17A, 18 A and 19 A). The tumour size was then used for calculations of TGI (%) values (see Table 5). TGI, representing antitumor effectiveness, were calculated using the formula TGI (%)=[1-(Vtreat-t−Vtreat-1)/(Vcontrol-t−Vcontrol-1)]×100, where Vtreat-1 and Vcontrol-1 are the mean volumes of the treated and control groups on grouping day; Vtreat-t and Vcontrol-t are the mean volumes of the treated and control groups on a given day. Animals were euthanized when tumour volumes reached 2000 mm^3. Body weight was also measured thrice weekly as a measure of compound toxicity (see FIGS. 17 B, 18 B and 19 B).

The target in assay [2] is CanAg antigen (human) (UniProt P15941). As to the kind of experiment: flow cytometry on CanAg positive Colo205 cells, AF488 anti-human IgG secondary, MFI curve. A general note: In flow cytometry, cells or beads pass a laser one at a time.
Assay [3] has the same target. As to the kind of experiment: flow cytometry on SNU-16 cells, 20 µg/mL PE conjugate, Quantibrite PE beads.
Assay [4] has the same target. As to the kind of experiment: flow cytometry on N87 cells, 20 µg/mL PE conjugate, Quantibrite PE beads.
Assay [5] shares this target. As to the kind of experiment: flow cytometry on HT-29 cells, 20 µg/mL PE conjugate, Quantibrite PE beads.
Assay [6] shares this target. In words: flow cytometry on Colo205 cells, 20 µg/mL PE conjugate, Quantibrite PE beads.
Assay [7] shares this target. In words: flow cytometry on BxPC3 cells, 20 µg/mL PE conjugate, Quantibrite PE beads.

The values below come from patent US20250213711A1, “ANTI-CANAG ANTIBODY CONJUGATE” (IKSUDA THERAPEUTICS LIMITED, priority 2022, published 2025).

As usually defined, the EC50 is the concentration that produces a half-maximal response.

B1: Cantuzumab ravtansine: humanised ADC targeting CanAg: cantuzumab (HuC242) conjugated to the cytotoxic maytansinoid drug ravtansine; DAR 4.0 (conjugate, chains of the INN, looked up)
VH: QVQLVQSGAEVKKPGETVKISCKASDYTFTYYGMNWVKQAPGQGLKWMGWIDTTTGEPTYAQKFQGRIAFSLETSASTAYLQIKSLKSEDTATYFCARRGPYNWYFDVWGQGTTVTVSS
VL: DIVMTQSPLSVPVTPGEPVSISCRSSKSLLHSNGNTYLYWFLQRPGQSPQLLIYRMSNLVSGVPDRFSGSGSGTAFTLRISRVEAEDVGVYYCLQHLEYPFTFGPGTKLELK
modifications: ravtansine maytansinoid payload, DAR 4.0
notes: humanised ADC targeting CanAg: cantuzumab (HuC242) conjugated to the cytotoxic maytansinoid drug ravtansine; DAR 4.0
As for B1, the cells killed in the assay on Colo-205 cells came to 75%. For the same molecule, the “anti-tumour response (in words)” value in the assay on BxPC3 xenograft (0.2 mg/kg and 0.5 mg/kg, in comparison to ADC-2 and ADC-3 at the same conjugated drug doses (FIG. 20)) is given as “weak anti-tumour response”. Besides, the “time at which tumour started to regrow” value in the assay on BxPC3 xenograft (2 mg/kg (53 nmol drug/kg)) is above 32 days. The “tumour inhibition (in words)” value in the assay on BxPC3 xenograft (2 mg/kg (53 nmol drug/kg) (FIG. 21 A)) is listed as “complete tumour inhibition”. Besides, the “TGI [%] at 29 or 32* day” value in the assay with BxPC3 xenograft (single intravenous dose 0.2 mg/kg (5.3 nmol drug/kg), day 29) is 24.3%; in the assay on BxPC3 xenograft (single intravenous dose 0.5 mg/kg (13 nmol drug/kg), day 29), 34.6%; with BxPC3 xenograft (single intravenous dose 2 mg/kg (53 nmol drug/kg), day 32), 104* %. For the same molecule, the “TGI [%] at 33 day” value in [1] is reported as 43%. The “TGI [%] at 15 day” value in the assay on Colo-205 xenograft was 40%.

B2: HC1 + LC1 (antibody, human IgG1, kappa, V domains shown)
VH: QVQLVQSGAEVKKPGASVKVSCKASDYTFTYYGINWVRQAPGQGLEWMGWIDTTTGEPNYAQKLQGRVTFTLDTSASTAYMELRSLRSDDTAVYYCARRGPYNWYFDVWGQGTLVTVSS
VL: DIVMTQTPLSLPVTPGEPASISCRSSKSLLHSNGNTYLYWYLQKPGQSPQLLIYRMSNRASGVPDRFSGSGSGTDFTLKISRVEAEDVGVYYCLQHLEYPFTFGPGTKVDIKR
In the assay with CanAg antigen (human) [2], B2 showed a half-maximal effective concentration (EC50) of 0.274 µg/mL.

B3: HC1 + LC3 (antibody, human IgG1, kappa, V domains shown)
VH: QVQLVQSGAEVKKPGASVKVSCKASDYTFTYYGINWVRQAPGQGLEWMGWIDTTTGEPNYAQKLQGRVTFTLDTSASTAYMELRSLRSDDTAVYYCARRGPYNWYFDVWGQGTLVTVSS
VL: DIVMTQTPLSLSVTPGQPASISCKSSKSLLHSNGNTYLYWYLQKPGQSPQLLIYRMSNLFSGVPDRFSGSGSGTDFTLKISRVEAEDVGVYYCLQHLEYPFTFGPGTKVDIKR
B3 had an EC50 with CanAg antigen (human) [2] of 0.305 µg/mL. This EC50 and that of the molecule before are within 1.5-fold of each other.

B4: HC3 + LC1 (antibody, human IgG1, kappa, V domains shown)
VH: QVQLVQSGAEVKKPGASVKVSCKASDYTFTYYGINWVRQATGQGLEWMGWIDTTTGEPTYAQKFQGRVTFTLETSISTAYMELSSLRSEDTAVYYCARRGPYNWYFDVWGAGTLVTVSS
VL: DIVMTQTPLSLPVTPGEPASISCRSSKSLLHSNGNTYLYWYLQKPGQSPQLLIYRMSNRASGVPDRFSGSGSGTDFTLKISRVEAEDVGVYYCLQHLEYPFTFGPGTKVDIKR
For B4, the EC50 with CanAg antigen (human) [2] amounted to 0.266 µg/mL. This EC50 and that of the molecule before are within 1.5-fold of each other.

B5: HC2 + LC2 (antibody, human IgG1, kappa, V domains shown)
VH: QVQLVQSGAEVKKPGASVKVSCKASDYTFTYYGMNWVRQAPGQGLEWMGWIDTTTGEPSYAQKFQGRVTFTLDTSASTVYMELSSLRSEDTAVYYCARRGPYNWYFDVWGQGTLVTVSS
VL: DIVMTQSPLSLPVTPGEPASISCRSSKSLLHSNGNTYLYWYLQKPGQSPQLLIYRMSNLASGVPDRFSGSGSGTDFTLKISRVEAEDVGVYYCLQHLEYPFTFGPGTKVDIKR
With B5, the EC50 with CanAg antigen (human) [2] was 0.408 µg/mL.

B6: HC3 + LC2 (antibody, human IgG1, kappa, V domains shown)
VH: QVQLVQSGAEVKKPGASVKVSCKASDYTFTYYGINWVRQATGQGLEWMGWIDTTTGEPTYAQKFQGRVTFTLETSISTAYMELSSLRSEDTAVYYCARRGPYNWYFDVWGAGTLVTVSS
VL: DIVMTQSPLSLPVTPGEPASISCRSSKSLLHSNGNTYLYWYLQKPGQSPQLLIYRMSNLASGVPDRFSGSGSGTDFTLKISRVEAEDVGVYYCLQHLEYPFTFGPGTKVDIKR
As to B6, the EC50 with CanAg antigen (human) [2] turned out to be 0.327 µg/mL.

B7: HC3 + LC3 (antibody, human IgG1, kappa, V domains shown)
VH: QVQLVQSGAEVKKPGASVKVSCKASDYTFTYYGINWVRQATGQGLEWMGWIDTTTGEPTYAQKFQGRVTFTLETSISTAYMELSSLRSEDTAVYYCARRGPYNWYFDVWGAGTLVTVSS
VL: DIVMTQTPLSLSVTPGQPASISCKSSKSLLHSNGNTYLYWYLQKPGQSPQLLIYRMSNLFSGVPDRFSGSGSGTDFTLKISRVEAEDVGVYYCLQHLEYPFTFGPGTKVDIKR
B7 registered an EC50 with CanAg antigen (human) [2] of 0.294 µg/mL.

B8: HC2 + LC1 (antibody, human IgG1, kappa, V domains shown)
VH: QVQLVQSGAEVKKPGASVKVSCKASDYTFTYYGMNWVRQAPGQGLEWMGWIDTTTGEPSYAQKFQGRVTFTLDTSASTVYMELSSLRSEDTAVYYCARRGPYNWYFDVWGQGTLVTVSS
VL: DIVMTQTPLSLPVTPGEPASISCRSSKSLLHSNGNTYLYWYLQKPGQSPQLLIYRMSNRASGVPDRFSGSGSGTDFTLKISRVEAEDVGVYYCLQHLEYPFTFGPGTKVDIKR
On to B8, for which the EC50 in the assay with CanAg antigen (human) [2] was 0.351 µg/mL.

B9: Phycoerythrin (PE)-conjugated HC1LC1 antibody (antibody, V domains shown)
VH: QVQLVQSGAEVKKPGASVKVSCKASDYTFTYYGINWVRQAPGQGLEWMGWIDTTTGEPNYAQKLQGRVTFTLDTSASTAYMELRSLRSDDTAVYYCARRGPYNWYFDVWGQGTLVTVSS
VL: DIVMTQTPLSLPVTPGEPASISCRSSKSLLHSNGNTYLYWYLQKPGQSPQLLIYRMSNRASGVPDRFSGSGSGTDFTLKISRVEAEDVGVYYCLQHLEYPFTFGPGTKVDIKR
modifications: R-phycoerythrin conjugated by Lightning-Link kit; sites not stated
With B9, the PE molecules per cell (PE molecules per cell) with CanAg antigen (human) [3] stood at 1.15e+07; in the assay with CanAg antigen (human) [4] it was 2570; with CanAg antigen (human) [5] it was 626000; in the assay with CanAg antigen (human) [6], 2.61e+06; with CanAg antigen (human) [7], 75300.

B10: HC1 + LC2 (antibody, human IgG1, kappa, V domains shown)
VH: QVQLVQSGAEVKKPGASVKVSCKASDYTFTYYGINWVRQAPGQGLEWMGWIDTTTGEPNYAQKLQGRVTFTLDTSASTAYMELRSLRSDDTAVYYCARRGPYNWYFDVWGQGTLVTVSS
VL: DIVMTQSPLSLPVTPGEPASISCRSSKSLLHSNGNTYLYWYLQKPGQSPQLLIYRMSNLASGVPDRFSGSGSGTDFTLKISRVEAEDVGVYYCLQHLEYPFTFGPGTKVDIKR
The molecule B10 came in with an EC50 in the assay with CanAg antigen (human) [2] of 0.268 µg/mL.

B11: HC2 + LC3 (antibody, human IgG1, kappa, V domains shown)
VH: QVQLVQSGAEVKKPGASVKVSCKASDYTFTYYGMNWVRQAPGQGLEWMGWIDTTTGEPSYAQKFQGRVTFTLDTSASTVYMELSSLRSEDTAVYYCARRGPYNWYFDVWGQGTLVTVSS
VL: DIVMTQTPLSLSVTPGQPASISCKSSKSLLHSNGNTYLYWYLQKPGQSPQLLIYRMSNLFSGVPDRFSGSGSGTDFTLKISRVEAEDVGVYYCLQHLEYPFTFGPGTKVDIKR
As to B11, the EC50 in the assay with CanAg antigen (human) [2] was determined as 0.354 µg/mL.
